Reference: doi:10.1101/507483
Where two headings read alike, the source gives them in different places.

Key:
[1] = target: TagA^ΔC, N-terminal domain of TagA from Thermoanaerobacter italicus (residues Met1-Gly195) (Thermoanaerobacter italicus); test: AUC
[2] = target: TagA^ΔC, N-terminal domain of TagA from Thermoanaerobacter italicus (residues Met1-Gly195) (Thermoanaerobacter italicus); test: AUC; remark: listed apart in the source

Substance: TagA^ΔC, N-terminal domain of TagA from Thermoanaerobacter italicus (residues Met1-Gly195) (domain or fragment)
- Kd [1]: 7.4 µM
- stoichiometry N [1]: 2
- Kd [2]: 3.5 µM
- stoichiometry N [2]: 2
